Laboratory results reported in patent US20050186604A1.

Biological target: Myc transcription factor (UniProt P01106)
Assay: cell-based or functional assay

UniProt P01106, sequence (P01106 16-454 limits assumed): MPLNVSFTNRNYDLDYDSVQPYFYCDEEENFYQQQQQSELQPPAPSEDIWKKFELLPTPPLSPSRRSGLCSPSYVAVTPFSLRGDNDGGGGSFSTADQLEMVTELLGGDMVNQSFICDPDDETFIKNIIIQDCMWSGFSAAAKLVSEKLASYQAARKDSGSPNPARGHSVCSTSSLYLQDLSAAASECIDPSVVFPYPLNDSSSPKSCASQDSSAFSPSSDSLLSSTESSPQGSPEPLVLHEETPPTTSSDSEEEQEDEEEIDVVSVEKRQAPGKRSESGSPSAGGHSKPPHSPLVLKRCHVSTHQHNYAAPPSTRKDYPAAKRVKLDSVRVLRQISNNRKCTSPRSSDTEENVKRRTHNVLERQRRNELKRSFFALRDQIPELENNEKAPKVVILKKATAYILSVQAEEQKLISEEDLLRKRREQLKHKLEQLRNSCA
HTLV-1 p30^II (HA), sequence (P0C214 whole entry): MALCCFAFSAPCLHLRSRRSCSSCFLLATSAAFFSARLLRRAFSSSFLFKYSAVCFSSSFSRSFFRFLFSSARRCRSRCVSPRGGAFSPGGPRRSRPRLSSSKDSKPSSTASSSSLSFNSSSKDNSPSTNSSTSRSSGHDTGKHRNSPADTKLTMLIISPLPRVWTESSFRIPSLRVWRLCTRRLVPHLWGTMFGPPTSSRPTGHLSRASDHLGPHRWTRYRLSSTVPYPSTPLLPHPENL

## HTLV-1 p30^II (HA)
  trans-activation from the synthetic M4-tk-luc promoter (luciferase reporter, four tandem E-boxes): 13 fold
  trans-activation from the synthetic M4-tk-luc promoter (luciferase reporter, four tandem E-boxes), higher p30^II concentrations: 5 to 7 fold
